# Measured values reported in patent US20240336661A1, “PEPTIDES DERIVED FROM RUMINOCOCCUS TORQUES” (University of Copenhagen, priority 2021, published 2024).
# B1: RUCILP2: 87 amino acid irisin-like polypeptide cleaved from the Ruminococcus torques FNDC5-like protein RUMTOR_00181; recombinant, 6-His-tagged from E. coli (protein)
# chain: APVDVKVSEITETSAKASWKNAADGKEAAGYNVYVDGVKLNKELLTEASCGLTNLKAETTYFVEVTAVDAAGNESVKSEKVTFKTLK
# modifications: 6-His tag; Ruminococcus torques
# notes: 87 amino acid irisin-like polypeptide cleaved from the Ruminococcus torques FNDC5-like protein RUMTOR_00181; recombinant, 6-His-tagged from E. coli
# What was measured:
# inguinal fat = assay: Daily intraperitoneal injection of RUCILP2 into chow-fed mice, gene expression in inguinal fat; format: in vivo, mouse; conditions: 1 mg/kg i.p. daily, 7 days, normal chow
# Description: FIG. 17. […] No effects on expression of marker genes for lipolysis. Recombinant RUCILP2 was daily injected intraperitoneal at a concentration of 1 mg/kg into 9-week-old wild type C57BL/6N mice for one week. The mRNA levels of indicated genes were analyzed by qRT-PCR. Data were expressed as mean±SEM, *, p<0.05; **, p<0.01; ***, p<0.001, when compared with phosphate-buffered saline (PBS) group, n=9 animals/group.
# Mice (20 male wild type C57BL/6N, 8 weeks of age, Janvier) were single-housed at 23±1° C. on a 12-hour light/12-hour dark cycle with access to food and water ad libitum. After 7 days of acclimatization on a standard chow diet (Altromin 1328 diet contains 11% of fat, 24% of protein, and 65% of carbohydrates. This diet is a cereal-based (soy, wheat, corn) fixed formula which is free of alfalfa and fish/animal meal and deficient in nitrosamines) to avoid stress, the mice received daily intraperitoneal injection of 1 mg/kg recombinant RUCILP2, and saline, respectively, for 7 days. All animals were then sacrificed, and subcutaneous fat pads and liver tissue were collected. The mRNA levels of thermogenic genes including Ucp1, Elovl3, Cidea, and Prdm16 as well as lipogenic genes including Acaca and Fasn in inguinal fat were analyzed by qRT-PCR as described below.
# RNA extraction and real-time PCR analysis: Total RNA was extracted from tissues using Trizol reagent (Invitrogen) according to the manufacturer's instructions, followed by concentration measurement. 1 μg RNA was transcribed to cDNA using the Reverse Transcription System (Promega). Real-time PCR was performed using the LC480 detection system (Roche Diagnostics) and SYBR Green I Supermix (Takara). Samples were run in duplicate in a single 384-well reaction plate. Data were normalized to the housekeeping Rp136, TBP or GAPDH genes and analyzed according to ΔΔCT method.
# H9C2 cardiomyoblasts = assay: Gene expression in H9C2 cardiomyoblasts; format: cell-based; conditions: q-PCR
# Description: (§1) FIG. 13. […] The cells were treated with various doses of RUCILP2, and cells were collected for q-PCR quantification on indicated genes. For integrin inhibitor treatment, cells were treated with 10 uM of cRGDyK (Selleckchem, #S7844) for 10 minutes and washed with PBS before treated with RUCILP2. Data are presented as mean+/−SEM of one representative experiment done in technical triplicate. Statistical significance was determined by unpaired two-tailed Student's t-test. *, p<0.05 vs 0 nM RUCILP2.
# (§2) Commercially available H9C2 cells (ATCC, #CRL-1446) were seeded on 12-well plates under DMEM/F-12 medium (Dulbecco's Modified Eagle Medium/Nutrient Mixture F-12, Fisher Scientific, #11524436), supplemented with 10% FBS (Fetal Bovine Serum, Fisher Scientific, #11550356) and 1% Penicillin-Streptomycin (Fisher Scientific, #11548876). Cell cultures were maintained in a humidified chamber with 5% CO2 at 37° C., and culture media were changed every 2-3 days.
# At 70% confluence, the cells were treated with indicated concentrations of recombinant RUCILP2, commercial recombinant irisin (Sigma, #SRP8039-10UG and Phoenix pharmaceuticals, #067-29A), and PBS for 24 h. For integrin inhibitor treatment, cells were treated with 10 μM of CycloRGDyK (Selleckchem, #S7844) for 10 minutes and washed with PBS before treated with recombinant RUCILP2, commercial recombinant irisin and PBS. […]
# HepG2 cell line = assay: Gluconeogenesis gene expression in HepG2 cells; format: cell-based; conditions: HepG2, q-PCR
# Description: as §1
# as §2, with “HepG2” for “Commercially available H9C2”, “cells” for “cells (ATCC, #CRL-1446)”, “C02” for “CO2”
# At 70% confluence, to induce insulin resistance, HepG2 cells were incubated with 18 mM glucosamine (GlcN) for 18 h in serum-free medium, followed by treatment with recombinant RUCILP2 or commercial recombinant irisin (Sigma, #SRP8039-10UG and Phoenix pharmaceuticals, #067-29A), or saline for 24 h. […]
molecule,measurement,setting,value
B1,expression of a gene involved in lipogenesis,inguinal fat,reduces expression
same,expression of genes involved in thermogenesis,inguinal fat,induces expression
same,expression of marker genes for lipolysis,inguinal fat,No effects
same,gene expression in H9C2 cardiomyoblasts (markers of cardiomyogenesis),H9C2 cardiomyoblasts,stimulate gene expression
same,expression of genes involved in gluconeogenesis,HepG2 cell line,reduces expression
